Test: soluble fraction after stress (log2 fold change); higher = more stays soluble; pooled small domains, quantitative proteomics
Conditions: stress: 75 degC
With “HMQASISVDEAKSIALNYAKFTADQVVYTKSELDYDDGRAEYEIEFYAGGKEYSFTIDAVSGTVLEMEI” the “soluble fraction (log2)” value was -2.26. For “HMQATDEEIENFTSSAITAYKLTKEEGYIISMRDMKPIMEIVKTEYPMANGKVVSKVMNNYING”, the “soluble fraction (log2)” value was 0.0264. In the case of “HMQDELSSSVIEEAVVVLLLRAANIDGKKDEQEIEAIKRLIIQQFNYDEEKADILITSASEK”, the “soluble fraction (log2)” value is reported as 0.0178. With “HMQDGTILPGQKTAIRSLATSGGYDSQDLDTYLATTYGKSIDGLTRTEGADVIKAFQAGTVAK” the “soluble fraction (log2)” value was 0.436. In the case of “HMQDLEIKINLGMTYYEVREAIGSPDIIDKINQYGRDFQMWTYYIDDKTKRYYFEDHLLTKI”, the “soluble fraction (log2)” value is reported as -2.84. For “HMQDLPPIHLSRGMTDYTLVRSRRRTLSMELKRDGTVVVHAPLRLGVEKIDAFVAAHEAWLARARTRQAER”, the “soluble fraction (log2)” value was -2.59. For “HMQDNPELVARIEKAAARGTSSMSDWERSFMGSLLDSAKKWGRLTAKQHEVFQRIEKKTDPAHQAAVS”, the “soluble fraction (log2)” value was 0.111. In the case of “HMQDPRITRTRGLILQAFDALLVEKGFHALSVQAIAGRAGINRATFYAHFADKYALLDTSIQE”, the “soluble fraction (log2)” value is reported as 0.227. For “HMQDREKNIAEGRDIIEHEFMRLGISLSRYDLDGLASKLNVKAGDDVLAGVGAGDIRVSQIISQLG”, the “soluble fraction (log2)” value was -0.0551. In the case of “HMQDTVKNVFGAFTIFTDKPFAIGDTINVNGLEGTVVDVGMRSTQILGYDRRITSYPNYKITDSSIVNISS”, the “soluble fraction (log2)” value is reported as -0.0554. In the case of “HMQDVVFTVDKDQTGAEIGDMLYEKGIISSPTTFRLALRLTGSMDKLQQGYYQIPQNASLRQVIALLQKG”, the “soluble fraction (log2)” value is reported as -0.35. In the case of “HMQDYYTQSDFARYLEDKGIHFPQNKIAVYRKRGKFPKEDLVVAGTPYWSKYTVESFAKHLLEQQN”, the “soluble fraction (log2)” value is reported as 0.254. With “HMQEAATSLNAKILAKLRENNGTLAVSDKSDPALISSLFGVSKGNFKKAIGALYKNGQIVIHADRIEL” the “soluble fraction (log2)” value was -0.813. With “HMQEDQKTSIFDIEGVEKGVASVLSSIKVEIVSDLLEADMDDILKSGKISEDDLDGVYEAVQNFVER” the “soluble fraction (log2)” value was 0.41. In the case of “HMQELNDQQRLAILNEWNNRATNPPSLLELVRVAFPDAEGADGRSWHGKKVKEFLSTRQIKARAS”, the “soluble fraction (log2)” value is reported as 0.0119. With “HMQENFYMILESEERRVLDVLVADQPESVATFLKLVSPFPNYKIILEHINEKALDFYEETVI” the “soluble fraction (log2)” value was -0.35. With “HMQESTILPAQKSAISSLATSAGFSSENLKRYLLQNYGVDLKDLTRSQGAEVIKAFQSGNVSKP” the “soluble fraction (log2)” value was 0.281. With “HMQETPAMLAMKELPTEDEQRIYMMLQEDYDSVLLVKTIRNAFSQNPQLTRQQLLPIILTWLMT” the “soluble fraction (log2)” value was -1.33. In the case of “HMQGATVYIKSDDIGKTTNEQGSFNFDKLKKNRYTLEISFIGYETKNLQAYTDRENIVQLNRKS”, the “soluble fraction (log2)” value is reported as -0.307. In the case of “HMQGEVPYSQFLTEVDRGDVQSVVIEGNNISGFYKNSSTAFTVVAPDDPKLVERLMEQGVEVKARPV”, the “soluble fraction (log2)” value is reported as 0.112. With “HMQGEVVTNRSVIDMSRAGLSADIIRAKILRSDTNFDVTAKALIELKESGVPDDIIALMLERADS” the “soluble fraction (log2)” value was 0.00604. For “HMQGIPVTVTAERANLRSGPGTSFDKLGQVVQGDVLTLLEVQNDWYKVKTAEGKTAFVAAYLVNSP”, the “soluble fraction (log2)” value was -0.269. For “HMQGQADFTQGIANFTQYPVGSRITVFTLEGRRVAVVEIGKDGTAQLDMRNKPAGVYIVNTGKQSFKWLK”, the “soluble fraction (log2)” value was -2.65. With “HMQGRIYLNPDLAEKLRAQYAAYPHWSYLLHTENLGALVRKTESLGPMPSYSTILRYMHANDMRKRNKP” the “soluble fraction (log2)” value was -1.78. With “HMQGVNLTETEKNFIAQVLSPLLKQGQSLYQIRTNHPEIKLSVKTLYTYIESGIFKESGINNFSLRRQ” the “soluble fraction (log2)” value was -0.122. In the case of “HMQILNVFSKHGIKPISPQIGDKFDPQLHEAMFEAPVPGTKAGDIIEVSSEGFMLYDRLLRPAHVGVSSN”, the “soluble fraction (log2)” value is reported as -0.0306. With “HMQILPAFLPENPELRARLANHSLEELTEILKQYKTLHNSTDVDTVKRAIRAIEIEEYYAVHPV” the “soluble fraction (log2)” value was -0.731. For “HMQINLKQSSDEELVKIITVQVHHYEPHTVKAAEAEIERRGIDKMRMAHLVKKVAQENTAVQEIQD”, the “soluble fraction (log2)” value was 0.297. For “HMQISDDSELIKIVDNILANSQKQIDDYHNGKTNLFGFFVGQVMKETKGKANPVKVNEILKDKL”, the “soluble fraction (log2)” value was -0.00828. For “HMQISDSSLIAKTVATVILENPEAVSDYLGGKHSVVRFMVGQIMKKTQGKANPKMATEMLETALNDL”, the “soluble fraction (log2)” value was -1.88. For “HMQISDTTELSTLITKVLSEQSDALVDFKNPKKQKQVIGYLTGQVLRASQGKANPGLVRSLLEEQLSALDS”, the “soluble fraction (log2)” value was 0.0724. In the case of “HMQISMQNIASVKIDDLSDEQIQEFSTKYTAAGYSFPDVENVAKQKGMPSSEIEKLRQRVLTAQNTQEK”, the “soluble fraction (log2)” value is reported as 0.283. With “HMQISSSEVLEKVVDEILSANPKSIEDYKNGKLQAAGFLMGQVMKATKGQANPAVAKELIEAKLKD” the “soluble fraction (log2)” value was 0.461. With “HMQISYDVPNLIGKSYEEVMTDPSILGEHFTVVLGETKTDEDTDAGVILHQDPAADSKVQDEVTPITVTVS” the “soluble fraction (log2)” value was 0.374. In the case of “HMQITDTEAIATTLDEIIAANPKEWERLKAGQEQLVKFFVGQVMRVTKGRANPQVVNDLLKERL”, the “soluble fraction (log2)” value is reported as -0.346. For “HMQITNEGQIKLVISEVLNENQEQKKQYLSGKEQVLGYLIGKVMQKTKGKANPKLVNDLMIKELS”, the “soluble fraction (log2)” value was -0.135. In the case of “HMQITSTDEIEKMIDELIAANPEQTKQYQNGNHKVAGWFVGQMMKASKGKANPQMVNNLLQKKL”, the “soluble fraction (log2)” value is reported as 0.278. In the case of “HMQITTVSPKNYAEAELIGQRFREGNPVVMDLSKLDSDLGQRLVDFASGLVFALNGTVERIAKKVFLLSP”, the “soluble fraction (log2)” value is reported as -1.37. For “HMQIVHKHLQLQPDQGALRAALYSHKAVVAEQVNEQGAINLEIKLAESDFLRLLKSSGLKLQDLVSLS”, the “soluble fraction (log2)” value was -1.35. In the case of “HMQKAQEYILVDIKGEVQTPGVYKLPVNSRVIDAIEASGGLTKKAVTTYINLSKTLKDENVIIINKKSEL”, the “soluble fraction (log2)” value is reported as -0.59. In the case of “HMQKITPDNWTYIRSLIRQKWSPDQIDQWLKKHPDVGFTVSRETIYQYVKEDRQKDGDLYLSLRRAGKSY”, the “soluble fraction (log2)” value is reported as -2.18. For “HMQKLKINKYKDPKGEIRYYIASTIRNGNKSSTHNLLSLGKHSDLLKEHSDVEAYLKERLNEAMESGI”, the “soluble fraction (log2)” value was -0.0843. With “HMQKPDIEVDFAEGDMVVVTGGAWKDTAGVITGINMQKQTVTINVELFGRETPVEISFTEIKKA” the “soluble fraction (log2)” value was -0.117. With “HMQKVPDAFKAEQVQTLITRLGVSRAELARTLDVSLSTVNKWASGAVEPKGSALVLLKVLWMHGFKAL” the “soluble fraction (log2)” value was -2.85. In the case of “HMQLDDDQKEELILKLIDSLDTTKKGAPLTELAREAAKSNIGESELEEITTSLLDKGLVYEPTIGKMKR”, the “soluble fraction (log2)” value is reported as 0.394. In the case of “HMQLDLNENEKIIFEILQNNKTMQLSNLKTQTELSNKGWDKAIKSLTKQGLAKVSKIDNELIVEFL”, the “soluble fraction (log2)” value is reported as -0.466. In the case of “HMQLKFTDLRKEILRMIWEGHGPQKAYDLLNKLQQTNPSAKPATVYRALDFLIGNGFIHKVASLNAFVG”, the “soluble fraction (log2)” value is reported as -0.59. For “HMQLKKDTILSYIEEKLIDSYNSNKGFTTQEISVALNMQRTNVSAILNNLVKENKLVKTKGKPVRYFLSG”, the “soluble fraction (log2)” value was -0.636. With “HMQLTPAQHAILAHALEHSDGKIVWFPDNIKGGARKKVLDGLLNRALITTDGTDWFVAAEGYDAMGR” the “soluble fraction (log2)” value was -0.386. In the case of “HMQLTVAVLIKNISKGQVISQGFLGFEARPERQIRGAYTNISEVLGRKAKSNIAVGTILKARHLDT”, the “soluble fraction (log2)” value is reported as -2.87. For “HMQNAMQKELIDAFQKAYPDLDITKIELVYGTYYEVEAMNSTTEFTYRYDQNSKTFILAEQDNADP”, the “soluble fraction (log2)” value was -0.203. In the case of “HMQNELAEARSQLAERKNIDQAKLILMKKRNISEPEAYKLLRSHAMQTNRRVAEVAESIITAESLLG”, the “soluble fraction (log2)” value is reported as -0.0692. For “HMQNGNLVDVYLNWRGKYYAIKMFFPNSKMPRRSDVQDQIVKVYPDARVQSFQVSKYVPGQPFL”, the “soluble fraction (log2)” value was -2.62. With “HMQNLSELAYVNLRDALMQGQMKPGEELPLRPISRSFGISATPMREALLRLVTESALEMDSRGRISVP” the “soluble fraction (log2)” value was -0.347. For “HMQNPYDTLGVSRDSTDAEIKKAYRKLAMEHHPDKGGDSQRFAEINNAYDNIKDMSSRQNFENDPSNFQ”, the “soluble fraction (log2)” value was 0.266. For “HMQNVFARKNLTSVSVDKLGEEEILLFKQSFESKNLTSSEALRDLSKKGMSEAELRKLKVRLTQL”, the “soluble fraction (log2)” value was -0.287. With “HMQNWFADPKFEMFEDYGDAQSFYDTETKNIYVVMAEYGQKGSNTIQEITPDSEEYIPNYEKYKEYMENK” the “soluble fraction (log2)” value was 0.214. With “HMQNYLEFIGNELKALTSIPSPSGYTKDVAAYLMKTLSDMGYEPQLSNKGNVFVTIGGEGNPLVLAAHVD” the “soluble fraction (log2)” value was 0.0285. With “HMQNYLEVLRLHELGMGQRKIAQQVHTSRDTIRKIIAIAENQGLNYSNLIGKTDNELSKVFG” the “soluble fraction (log2)” value was -0.622. With “HMQPAGEGAILRYLSSGAVKGIGPVMAREIVRRFGTDTFRVMEQEPEKLLKVKGITEQRLQTIMESYQD” the “soluble fraction (log2)” value was -0.198. For “HMQPDPAFVAWVDANPWYKENRTLRALVHDYAEEVKRQEPALIGTAFLDRVKQLVQSEHPELFD”, the “soluble fraction (log2)” value was -0.234. With “HMQPETIEDATNLYLEAARATLQLIEQNNVIARDVKRLLEHLDNDMARIETLLAEMLSRRDHWLRHIH” the “soluble fraction (log2)” value was 0.148. With “HMQPIQPNQAKYLDGLSSKYKGKGNHSQAAQLTALRDALNAGDHAKAREIYDKLDYEPQAEAAH” the “soluble fraction (log2)” value was 0.364. For “HMQPNVTRERILAAAMTVFAQKGWQKTSLDEVAAAAGMTKGAIYWHFRNKNDLFFALLDARLQRD”, the “soluble fraction (log2)” value was -2.16. In the case of “HMQQAVTMQKPGRLLRNADGNGGAVRDLDVGMMLYPTGNRSELMWEVDDELGNRGWVNSTLFGLS”, the “soluble fraction (log2)” value is reported as 0.013. In the case of “HMQQDGSSSLGENMLNQELQARGVVPSEIPQEVWERVIQEAGKKSKREIYADIGLGRSLAAGFAQRLAA”, the “soluble fraction (log2)” value is reported as 0.145. In the case of “HMQQDVLKLKSGGNYKGEYINIESAYVLFKPEGGNATQRIKVNEIQMLKLADGTEVIFGGRVK”, the “soluble fraction (log2)” value is reported as -0.237. In the case of “HMQQEPNFYIVDGNTNQIVDRYYAPDSNVAHQYLGQWRQQHDPQETGNYRYGRLSSETEERYRNLAA”, the “soluble fraction (log2)” value is reported as 0.22. For “HMQQFGANVRLIRKARQMSIKQLSELSGVSQTMISEVERGLKIPTIDVAGKIAAALGIDLTNLMG”, the “soluble fraction (log2)” value was -2.16. With “HMQQIQILPDGKIKLPDLSGTNMREAIEILHKGGLRMKPYGSGNAYQQKPAAGETVASGTTVEVLSL” the “soluble fraction (log2)” value was 0.151.

Reference: the domain aggregation screens of Martell et al. (2025)
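Also: 20 min heating vs room temperature control held 20 min.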
